Consider eight proteins from paper PMC8392543.

Substrate in the data set: O=[N+]([O-])c1ccc(O[C@H]2O[C@H](CO)[C@@H](O)[C@H](O)[C@H]2O)cc1
Description: purified protein. The note with it: 33 mM potassium phosphate pH 7.0, 25 °C.

Where a chain is given by its changes, count along the chain named. Numbers in names are those of the source.

B1: EsOgl (Exiguobacterium artemiae 255-15; A109P/E176P/K441P/S130P) (protein)
chain: MERKWWHDSVVYQIYPRSFNDSNGDGIGDLVGIIEKLDYLKELGIDVIWLSPVYDSPNDDNGYDIRDYEAIMSEFGTMADFDRLLDQAHERGIKIVMDLVINHSSDEHPWFAESRKSKDNPYRDYYIWRPANEDGTLPNNWGSIFSGPAWELDEATNEYYLHLFSKKQPDLNWENPKLRQEVYQMITRWLDRGIDGFRMDVINLISKTPGLPDATVPPGALYGDGGQHYINGPRIHEFLKEMNDASFGNYDVLTVGEMPGATTDDAILYTDPERKEVNMVFTFEHMDLDSGPGGKWDVKPFDLQKLKENFTKWQVALHEKGWNSLYWNNHDQPRVVSRFGNDTTYRVESAKMLATLLHLLKGTPYIYQGEEIGMTNVAFESIEDYEDIEIRNMWKERTEQGASPAELLRAVHVKGRDNARTPIQWDATEHAGFTTGTPWLPVNPNYPTINVEQALEDPDSIFYYYKQLIALRHQHDVIVYGEYALILEEETDIYAYTRTYENETWYIYCSFSQEEVTVPLSHDTSDPVIGNYSESPAGSKEELVLRPYEAIVYRTTR
Take B1: the Km (in general, the substrate concentration at which the rate is half of its maximum) turned out to be 850 ± 20 µM and the kcat/Km – broadly, the second-order rate constant that governs catalysis at low substrate concentration – came out at 167000 M⁻¹ s⁻¹.

B2: EsOgl (Exiguobacterium artemiae 255-15; K441P) (protein)
chain: B1 chain with P109A, P130S, P176E
As for B2, the Km amounted to 930 ± 80 µM and the kcat/Km came out at 183000 M⁻¹ s⁻¹.

B3: EsOgl (Exiguobacterium artemiae 255-15; S130P) (protein)
chain: B1 chain with P109A, P176E, P441K
In the case of B3, the Km was 1660 ± 60 µM and the kcat/Km came out at 250000 M⁻¹ s⁻¹.

B4: EsOgl (Exiguobacterium artemiae 255-15) (protein)
chain: B1 chain with P109A, P130S, P176E, P441K
B4: the Km turned out to be 1060 ± 20 µM and the kcat/Km stood at 233000 M⁻¹ s⁻¹.

B5: EsOgl (Exiguobacterium artemiae 255-15; A109P/E176P/S130P) (protein)
chain: B1 chain with P441K
In the case of B5, the Km is 920 ± 70 µM and the kcat/Km was found to be 217000 M⁻¹ s⁻¹.

B6: EsOgl (Exiguobacterium artemiae 255-15; E176P) (protein)
chain: B1 chain with P109A, P130S, P441K
As for B6, the Km was found to be 1970 ± 80 µM and the kcat/Km was found to be 167000 M⁻¹ s⁻¹.

B7: EsOgl (Exiguobacterium artemiae 255-15; A109P) (protein)
chain: B1 chain with P130S, P176E, P441K
On to B7, for which the Km was found to be 1430 ± 90 µM and the kcat/Km came out at 167000 M⁻¹ s⁻¹.

B8: EsOgl (Exiguobacterium artemiae 255-15; A109P/S130P) (protein)
chain: B1 chain with P176E, P441K
With B8, the Km amounted to 1370 ± 40 µM and the kcat/Km stood at 167000 M⁻¹ s⁻¹.
